Reference: US6500647 (MOGAM BIOTECHNOLOGY RESEARCH INSTITUTE, dated 2002)

T1: PTH receptor of UMR106 cell line (rat osteoblast-like osteosarcoma cell line) (rat, UniProt P25961 27-591)
T1 sequence (looked up): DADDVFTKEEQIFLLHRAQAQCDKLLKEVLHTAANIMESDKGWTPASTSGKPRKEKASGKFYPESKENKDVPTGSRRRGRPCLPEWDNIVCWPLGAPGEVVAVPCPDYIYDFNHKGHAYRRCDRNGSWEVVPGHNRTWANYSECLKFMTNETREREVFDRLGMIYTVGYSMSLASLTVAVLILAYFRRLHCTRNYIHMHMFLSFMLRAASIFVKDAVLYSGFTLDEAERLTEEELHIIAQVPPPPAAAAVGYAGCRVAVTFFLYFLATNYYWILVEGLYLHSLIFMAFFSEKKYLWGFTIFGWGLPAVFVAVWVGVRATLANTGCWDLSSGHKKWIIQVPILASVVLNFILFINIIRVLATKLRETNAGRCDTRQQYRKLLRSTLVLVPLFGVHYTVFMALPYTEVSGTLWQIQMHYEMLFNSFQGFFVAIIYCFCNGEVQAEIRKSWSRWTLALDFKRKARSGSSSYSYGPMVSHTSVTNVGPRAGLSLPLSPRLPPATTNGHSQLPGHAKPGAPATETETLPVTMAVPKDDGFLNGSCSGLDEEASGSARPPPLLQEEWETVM


Assays:
[1] = target: T1, PTH receptor of UMR106 cell line (rat …); experiment: cell-based or functional assay
[2] = target: T1, PTH receptor of UMR106 cell line (rat …); experiment: competition with 125I-(Nle8,18Tyr34)-bPTH (1-34) for binding to UMR106 cells, 15 C, 4 h
Description: A binding test to PTH receptor was carried out as followings (see: Chohei Shigeno et al., The Journal of Biological Chemistry, 263(8):3864–3871(1988)): 10^5 UMR106 cells per well was added into a 24 well-plate and cultured for 4 to 8 days. Medium was exchanged every two days and it was exchanged daily at 3 days before the test. On the other hand, in order to prepare (Nle^{8,18}Tyr^34)-bovine PTH (1–34)-NH_2(bPTH (1–34)) (see: Gino V. Segre et al., JBC, 254(15) :6980–6986(1979)) which was labelled with a radioactive isotope, ^125I at a tyrosine residue of carboxy-terminus, bPTH (1–34) was iodinated with Na^125I using chloramine T (Sigma Chemical Co., USA) as a catalyst. […]
Binding affinity of PTH to its receptor was determined by comparing competitive inhibition of rhPTH (1–84) and shPTH (1–84) against ligand binding to the receptor by using the ^125I-labelled (Nle^{8,18}Tyr^34)-bPTH (1–34) as a ligand. […] The solution obtained after extraction was mixed with the solution obtained after washing with 0.5 ml of the binding buffer and counted for its radioactivity employing γ-counter.
Specific binding was determined by subtracting value of nonspecific binding measured by using each competitive hormone of 1 mM from value of binding radioactivity measured above.

EC50 (concentration of hormone required for stimulating production of intracellular cAMP to reach an increase of 50%) [1] [nM]	IC50 [2] [nM]	Binder
1.9	18.6	synthetic human PTH (shPTH (1-84), Sigma Chemical Co., USA) (ligand, UniProt P01270 32-115, looked up, mature; Control hormone, bought; also called synthetic PTH) SVSEIQLMHNLGKHLNSMERVEWLRKKLQDVHNFVALGAPLAPRDAGSQRPRKKEDNVLVESHEKSLGEADKADVNVLTKAKSQ
1.3	17.3	human recombinant PTH (rhPTH (1-84)) (ligand, UniProt P01270 32-115, looked up, mature; also called recombinant human PTH; purified human PTH) SVSEIQLMHNLGKHLNSMERVEWLRKKLQDVHNFVALGAPLAPRDAGSQRPRKKEDNVLVESHEKSLGEADKADVNVLTKAKSQ
